Key:
Format in all cases: biochemical, Caldanaerobacter subterraneus
purified protein [1] = substrate: Nc1ncnc2c1ncn2[C@@H]1O[C@H](COP(=O)(O)OP(=O)(O)O)[C@@H](O)[C@H]1O; experiment: purified protein; conditions: glucose as co-substrate, Mg2+, Tris-HCl (pH optimum 8.0, T opt 80 °C)
coupled enzyme assay = substrate: Nc1ncnc2c1ncn2[C@@H]1O[C@H](COP(=O)(O)OP(=O)(O)OP(=O)(O)O)[C@@H](O)[C@H]1O; experiment: coupled enzyme assay; conditions: Mg2+, Tris-HCl, sugar co-substrate not stated for this constant (pH optimum 7.5, T opt 70 °C)
Text: coupled enzyme assay on TTE2418 (glu/man-NacK)

purified protein [2] = substrate: Nc1ncnc2c1ncn2[C@@H]1O[C@H](COP(=O)(O)OP(=O)(O)OP(=O)(O)O)[C@@H](O)[C@H]1O; experiment: purified protein; conditions: glucose as co-substrate, Mg2+, Tris-HCl pH 8.0, 75 °C

B1: TTE1961 (ADP-GLK) (Caldanaerobacter subterraneus subsp. tengcongensis MB4) (protein)
chain: MRIGVDLGGTNIAVGLVEEDGKIIATGSRPTKPERGYEAIARDIAELSFELLQRMGISVKDVKSMGIGVPGVADNEKGIVIRAVNLFWTKVPLAKEIRKYIDLPIYMENDANVAALAEATFGAGRGSKSSVTITLGTGVGSGFILDGKIYSGAHHFAPEIGHMVIGDNGIRCNCGKIGCFETYASATALIREGKKAAKRNPNTLILKFANGDIEGITAKNVIDAAKQYDEEALKIFEEYVKYLAVGIVNIINLFDPEVIILGGGVANAGDFLLKPLKKEVAENILFKELPYADIRKAELGNDAGIIGAAILS
notes: recombinant, His-tagged
With B1 the Km (purified protein [1]) was 0.9 mM.

B2: TTE2418 (glu/man-NacK) (Caldanaerobacter subterraneus subsp. tengcongensis MB4) (protein)
chain: MKVIGVDIGGTKILGGLIDERGNLLEETLVYTKAHLGREKILENLFIAIDKLIDKDVKGIGIGSAGRINFKEGIVEYATDNLPGWTGCNLKQLLEDRYKIPVIADNDVNAAVIGEIWQGAGRGYKDIVMIAIGTGVGGAIVYNGEVIRGGSWSAGEIGHMILYPKGRQCNCGQRGCLEQYVSGTAIARTYSEVSKEKKIAGAEEVFLLAEKGDKMALEIVNDFVNSLSIAILSLKNLLDPEIFIIGGGVIGAKRVWWDKLKKTLENRASITPAQLENKATMVGAAKLIIDYLSKNN
notes: recombinant
For B2, the Km (coupled enzyme assay) was 1.9 mM and the Vmax (coupled enzyme assay) was 51/ND.

B3: TTE0090 (ATP-GLK) (Caldanaerobacter subterraneus subsp. tengcongensis MB4) (protein)
chain: MKKFLCGVDLGGTKISTGIVDENGNIIKSIKIPTMAEKGPDVVIERIEESIYQVLKDTGLEMSNLKGIGIGSPGPLNAKKGIVISPPNLPHWSNVPIVEILSKRLGIEVRLENDANAAAIGEHLFGSGRGVDNFVYITVSTGIGGGVIIEGKLYSGENSNAAEIGHHTINFDGPRCNCGNYGCFEAYASGTAIARFAREGIEKGIKTKIKELAGEGEVKAEHVFEAAKLGDEFAKELVEKEAFYLGVGIANIMAFYNPRKIAIGGGVSAQWDMLYEKMMETVRKKALKPNAEVCEVVKAQLGENIGVLGAAALLL
notes: recombinant, His-tagged
In the case of B3, the Km (purified protein [2]) is reported as 2.6 mM and the Vmax (purified protein [2]) is reported as 100/ND.
